The test concerns the target T1, His-labeled kinase domain of CEPR2 (CEPR2^KD-His, amino acids 642–977) (Arabidopsis thaliana, UniProt Q9C7T7 642-977).
T1 sequence: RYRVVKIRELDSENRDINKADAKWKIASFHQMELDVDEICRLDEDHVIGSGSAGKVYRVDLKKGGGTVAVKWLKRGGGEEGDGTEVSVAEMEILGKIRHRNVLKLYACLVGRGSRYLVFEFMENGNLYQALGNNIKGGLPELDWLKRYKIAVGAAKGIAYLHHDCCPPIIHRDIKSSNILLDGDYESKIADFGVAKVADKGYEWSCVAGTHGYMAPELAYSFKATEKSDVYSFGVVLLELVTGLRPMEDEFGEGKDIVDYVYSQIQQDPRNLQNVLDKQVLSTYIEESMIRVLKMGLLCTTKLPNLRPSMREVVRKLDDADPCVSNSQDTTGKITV
In words: pull-down.

B1: GST-tagged PYL2 (PYL2–GST) (receptor)
chain: MSSSPAVKGLTDEEQKTLEPVIKTYHQFEPDPTTCTSLITQRIHAPASVVWPLIRRFDNPERYKHFVKRCRLISGDGDVGSVREVTVISGLPASTSTERLEFVDDDHRVLSFRVVGGEHRLKNYKSVTSVNEFLNQDSGKVYTVVLESYTVDIPEGNTEEDTKMFVDTVVKLNLQKLGVAATSAPMHDDE
For B1, the binding result is reported as “binds”.

B2: GST-tagged PYL4 (PYL4–GST) (receptor)
chain: MLAVHRPSSAVSDGDSVQIPMMIASFQKRFPSLSRDSTAARFHTHEVGPNQCCSAVIQEISAPISTVWSVVRRFDNPQAYKHFLKSCSVIGGDGDNVGSLRQVHVVSGLPAASSTERLDILDDERHVISFSVVGGDHRLSNYRSVTTLHPSPISGTVVVESYVVDVPPGNTKEETCDFVDVIVRCNLQSLAKIAENTAAESKKKMSL
For the molecule B2, the binding result was “binds”.

Values taken from article PMC6793440 (Journal of Experimental Botany, 2019).
